# Data reported in the Human Domainome abundance scans (Beltran et al. 2025).
# ± gives the uncertainty stated by the source.
# B1: Gamma-crystallin S, residues 96 to 176; numbered along this chain, P22914 (parent)
# chain: IQIFEKGDFSGQMYETTEDCPSIMEQFHMREIHSCKVLEGVWIFYELPNYRGRQYLLDKKEYRKPIDWGAASPAVQSFRRI
# Variants of: B1
# Experiment: abundance fitness (aPCA) (normalised: wild type 0, dead -1); higher = more abundant; growth selection in yeast, the domain comes from the species named
# Details: Homo sapiens
row,Variant,abundance fitness
1,IQIFEKGDFSGQMYETTEDQPSIMEQFHMREIHSCKVLEGVWIFYELPNYRGRQYLLDKKEYRKPIDWGAASPAVQSFRRI,-0.002 ± 0.09
2,IQIFEKGDFSGFMYETTEDCPSIMEQFHMREIHSCKVLEGVWIFYELPNYRGRQYLLDKKEYRKPIDWGAASPAVQSFRRI,-0.053 ± 0.084
3,IQIFEKGDFSGTMYETTEDCPSIMEQFHMREIHSCKVLEGVWIFYELPNYRGRQYLLDKKEYRKPIDWGAASPAVQSFRRI,0.053 ± 0.084
4,IQIFEKGDFSGQMYETTEDCPSIMEQFHMREIHSCKVLEGVWIFYELPNYRGRRYLLDKKEYRKPIDWGAASPAVQSFRRI,-0.013 ± 0.039
5,IQIFEKGDFSGQMYETTNDCPSIMEQFHMREIHSCKVLEGVWIFYELPNYRGRQYLLDKKEYRKPIDWGAASPAVQSFRRI,0.072 ± 0.13
6,IQIFEKGDFSGQMYETTKDCPSIMEQFHMREIHSCKVLEGVWIFYELPNYRGRQYLLDKKEYRKPIDWGAASPAVQSFRRI,0.017 ± 0.14
7,IQIFEKGDFSGQMYETTGDCPSIMEQFHMREIHSCKVLEGVWIFYELPNYRGRQYLLDKKEYRKPIDWGAASPAVQSFRRI,0.038 ± 0.039
8,IQIFEKGDFSGQMAETTEDCPSIMEQFHMREIHSCKVLEGVWIFYELPNYRGRQYLLDKKEYRKPIDWGAASPAVQSFRRI,0.049 ± 0.077
9,IQIFEKGDFSGQMYETTEDCPPIMEQFHMREIHSCKVLEGVWIFYELPNYRGRQYLLDKKEYRKPIDWGAASPAVQSFRRI,-0.907 ± 0.2
10,IQIFEKGDFSGQMYETTEDCPRIMEQFHMREIHSCKVLEGVWIFYELPNYRGRQYLLDKKEYRKPIDWGAASPAVQSFRRI,-0.016 ± 0.044
11,IQIFEKGDFSEQMYETTEDCPSIMEQFHMREIHSCKVLEGVWIFYELPNYRGRQYLLDKKEYRKPIDWGAASPAVQSFRRI,-0.01 ± 0.062
12,IQINEKGDFSGQMYETTEDCPSIMEQFHMREIHSCKVLEGVWIFYELPNYRGRQYLLDKKEYRKPIDWGAASPAVQSFRRI,-0.231 ± 0.11
13,IQIREKGDFSGQMYETTEDCPSIMEQFHMREIHSCKVLEGVWIFYELPNYRGRQYLLDKKEYRKPIDWGAASPAVQSFRRI,-0.945 ± 0.11
14,IQIKEKGDFSGQMYETTEDCPSIMEQFHMREIHSCKVLEGVWIFYELPNYRGRQYLLDKKEYRKPIDWGAASPAVQSFRRI,-0.193 ± 0.19
15,IQIFEKSDFSGQMYETTEDCPSIMEQFHMREIHSCKVLEGVWIFYELPNYRGRQYLLDKKEYRKPIDWGAASPAVQSFRRI,-0.01 ± 0.054
16,IQIFEKGDFSGQMYETTEDCPSIMEVFHMREIHSCKVLEGVWIFYELPNYRGRQYLLDKKEYRKPIDWGAASPAVQSFRRI,0.009 ± 0.059
17,IQIFEKGDFSGQMYETTEDCPSIMEQFHMREIHSCKVLPGVWIFYELPNYRGRQYLLDKKEYRKPIDWGAASPAVQSFRRI,-0.227 ± 0.078
18,IQDFEKGDFSGQMYETTEDCPSIMEQFHMREIHSCKVLEGVWIFYELPNYRGRQYLLDKKEYRKPIDWGAASPAVQSFRRI,-0.705 ± 0.38
19,IQIFEKGDFSGQMYETTEDCPSIMEQFHMREIHSCKVLEGVWIFYELPNYRGPQYLLDKKEYRKPIDWGAASPAVQSFRRI,-0.169 ± 0.069
20,IQIFEKGDFSGQMYETTEDCPSIMEQFHMREIHSCKVLEGVWIFYELPNYRGYQYLLDKKEYRKPIDWGAASPAVQSFRRI,-0.129 ± 0.093
21,IQIFEKGDFSGQMYETTEDCPSIMEQFHMREIHSCKVLEGVWIFYELPNYRGDQYLLDKKEYRKPIDWGAASPAVQSFRRI,0.048 ± 0.082
22,IQIFEKGDFSGQMYETTEDCPSIMEQFHMEEIHSCKVLEGVWIFYELPNYRGRQYLLDKKEYRKPIDWGAASPAVQSFRRI,0.066 ± 0.063
23,IQIFEKGDFSGQMYETTEDCPSIMEQFHMREIHSCKVLEGVWIFYELPNYRGRQYLLDKKEYLKPIDWGAASPAVQSFRRI,0.133 ± 0.13

row,Variant,abundance fitness
1,IQIFEKGDFSGQMYETTEDCPSIMEQFHMREIHSCKVLEGVWIFYELPNYRGRQYLLDKKEYRKPIDWGAASPAGQSFRRI,0.052 ± 0.16
2,IQIFEKGDFFGQMYETTEDCPSIMEQFHMREIHSCKVLEGVWIFYELPNYRGRQYLLDKKEYRKPIDWGAASPAVQSFRRI,-0.091 ± 0.088
3,IQIFEKGDFSGQMYETTEDCPSIMEQFHMREIHSCKVLEGVWPFYELPNYRGRQYLLDKKEYRKPIDWGAASPAVQSFRRI,-1.1 ± 0.2
4,IQIFEKGDFSGQMYETTEDCPSIMEQFHMREIHSCKVLEGVWNFYELPNYRGRQYLLDKKEYRKPIDWGAASPAVQSFRRI,0.007 ± 0.14
5,IQIFEKGDFSGQMYETTEDCPSIMEQFHMREIHSCKVLEGVWIFYELPNYRGRQYGLDKKEYRKPIDWGAASPAVQSFRRI,0.064 ± 0.17
6,IQIFEKGDFSGQMYETTEDCPSIMEQFHMREIHSCKVLEGVWIFYELPNYRGRQYSLDKKEYRKPIDWGAASPAVQSFRRI,-0.031 ± 0.17
7,IQIFEKGDFSGQMYETTEDCPSIMEQFHMREIHSCKVLEGVWIFYELPNYRGRQYCLDKKEYRKPIDWGAASPAVQSFRRI,-0.136 ± 0.42
8,IKIFEKGDFSGQMYETTEDCPSIMEQFHMREIHSCKVLEGVWIFYELPNYRGRQYLLDKKEYRKPIDWGAASPAVQSFRRI,0.022 ± 0.085
9,IQIFEKGDFSGQMYETTEDCPSIMEQFKMREIHSCKVLEGVWIFYELPNYRGRQYLLDKKEYRKPIDWGAASPAVQSFRRI,0.07 ± 0.099
10,IQIFEKGDFSGQMYETTEDCPSIMEQFNMREIHSCKVLEGVWIFYELPNYRGRQYLLDKKEYRKPIDWGAASPAVQSFRRI,0.009 ± 0.081
11,IQIFEKGDFSGQMYETTEDCGSIMEQFHMREIHSCKVLEGVWIFYELPNYRGRQYLLDKKEYRKPIDWGAASPAVQSFRRI,0.004 ± 0.04
12,IQIFEKGDFSGQMYETTEDCASIMEQFHMREIHSCKVLEGVWIFYELPNYRGRQYLLDKKEYRKPIDWGAASPAVQSFRRI,-0.043 ± 0.058
13,IQIFEKGDFSGQMYETTEDCPSIMEQFHMREIHSCKVLEGVWIFYELPNYRGRQYLLDKKEYRLPIDWGAASPAVQSFRRI,-0.07 ± 0.12
14,IQIFEKGDFSGQMYETTEDCPSIMEQCHMREIHSCKVLEGVWIFYELPNYRGRQYLLDKKEYRKPIDWGAASPAVQSFRRI,-0.094 ± 0.085
15,IQIFEKGDFSGQMYETTEDCPSIMEQHHMREIHSCKVLEGVWIFYELPNYRGRQYLLDKKEYRKPIDWGAASPAVQSFRRI,0.101 ± 0.24
16,IQIFEKGDFSGQMYETTEDCPSIMEQSHMREIHSCKVLEGVWIFYELPNYRGRQYLLDKKEYRKPIDWGAASPAVQSFRRI,0.006 ± 0.047
17,IQIFEKGDFSGQMYETTEDCPSIMEQQHMREIHSCKVLEGVWIFYELPNYRGRQYLLDKKEYRKPIDWGAASPAVQSFRRI,0.021 ± 0.067
18,IQIFEKGDFSGQMYETTEDCPSIMEQLHMREIHSCKVLEGVWIFYELPNYRGRQYLLDKKEYRKPIDWGAASPAVQSFRRI,0.015 ± 0.049
19,IQIFEKGDFSGQMYETTEDCPSIWEQFHMREIHSCKVLEGVWIFYELPNYRGRQYLLDKKEYRKPIDWGAASPAVQSFRRI,0.115 ± 0.06
20,IQIFEKGDFSGQMYETTEDCPSIKEQFHMREIHSCKVLEGVWIFYELPNYRGRQYLLDKKEYRKPIDWGAASPAVQSFRRI,0.335 ± 0.12
21,IQIFEKGDFSGQMYETTEDCPSIEEQFHMREIHSCKVLEGVWIFYELPNYRGRQYLLDKKEYRKPIDWGAASPAVQSFRRI,-0.052 ± 0.078
22,IQIFEKGDFSGQMYETTEDCPSIQEQFHMREIHSCKVLEGVWIFYELPNYRGRQYLLDKKEYRKPIDWGAASPAVQSFRRI,-0.097 ± 0.098
23,IQIFEKGDFSGQMYETTEDCPSIMEQFHMRFIHSCKVLEGVWIFYELPNYRGRQYLLDKKEYRKPIDWGAASPAVQSFRRI,0.041 ± 0.081

row,Variant,abundance fitness
1,IQIFEKGDFSGQMYETTEDCPSIMEQFHMREIHSCKVLEGVWIFYELPNYRGRQYLLWKKEYRKPIDWGAASPAVQSFRRI,-0.461 ± 0.17
2,IQIFEKGDFSGQMYETTEDCPSSMEQFHMREIHSCKVLEGVWIFYELPNYRGRQYLLDKKEYRKPIDWGAASPAVQSFRRI,-0.038 ± 0.085
3,IQIFEKGDFSGQMYETTEDCPSQMEQFHMREIHSCKVLEGVWIFYELPNYRGRQYLLDKKEYRKPIDWGAASPAVQSFRRI,-0.398 ± 0.18
4,IQIFEKGDFSGQMYETTEDCPSIMEQFHMREIHSCKVLEGVWIFYELANYRGRQYLLDKKEYRKPIDWGAASPAVQSFRRI,-0.027 ± 0.062
5,IQIFEKGDFSGQMYETTEDCPSIMEQFHMREIHSCKVLEGVWIFYELPNYNGRQYLLDKKEYRKPIDWGAASPAVQSFRRI,-0.264 ± 0.19
6,IQIFEKGDFSGQMYETTEDCPSIMEQFHMREIHSCKVLEGVWIFYELPNYRGRQYLLDKKEPRKPIDWGAASPAVQSFRRI,0.177 ± 0.29
7,IQIFEKGDFSGQMYETTEDCPSIMEQFHMREIHSCKVLEGVVIFYELPNYRGRQYLLDKKEYRKPIDWGAASPAVQSFRRI,-0.042 ± 0.046
8,IQIFEKGDFSGQMYETTEDCPSIMEQFHMREIHSCKVLEGVPIFYELPNYRGRQYLLDKKEYRKPIDWGAASPAVQSFRRI,-1.04 ± 0.28
9,IQIFEKGDFSGQMYETTEDCPSIMEQFHMREIHSCKVLEGVWIFYECPNYRGRQYLLDKKEYRKPIDWGAASPAVQSFRRI,-0.022 ± 0.11
10,IQIFEKGDFSGQMYETTEDCPSIMEQFHMREIHSCKVLEGVWIFYEKPNYRGRQYLLDKKEYRKPIDWGAASPAVQSFRRI,0 ± 0.099
11,IQIFEKGDFSGQMYETTEDCPSIMEQFHMREIHSCKVLEGVWIFYELPNYRGRQYLLDKKEYRKPIDWGIASPAVQSFRRI,0.111 ± 0.18
12,IQIFEKGDFSGQMYETTEDCPSIMEQFHMREIHSCKVLEGVWIFYELPNYRGRQYLLDKKEYRKPIDGGAASPAVQSFRRI,-0.139 ± 0.11
13,IQIFEKGDFSGQMYETTEDCPSIMEQFHMREIHSCKVLEGVWIFYELPNYRGRQYLLDKKEYRKPIDAGAASPAVQSFRRI,-0.167 ± 0.14
14,IQIFEKGDFSGQMYETTEDCPSIMEQFHHREIHSCKVLEGVWIFYELPNYRGRQYLLDKKEYRKPIDWGAASPAVQSFRRI,0.124 ± 0.21
15,IQIFEKGDFSGQMYETTEDCPSIMEQFHMREIHLCKVLEGVWIFYELPNYRGRQYLLDKKEYRKPIDWGAASPAVQSFRRI,-0.967 ± 0.12
16,IQIFEKGDFSGQMYETTEDCPSIMEQFHMREIHTCKVLEGVWIFYELPNYRGRQYLLDKKEYRKPIDWGAASPAVQSFRRI,-0.601 ± 0.099
17,IQIFEKGDFSGQMYETTEDCPSIMEQFHMREIHSCKVLEGVWIFYELPNYRGRQYLLDKKEYRKPIDWGAAFPAVQSFRRI,-0.066 ± 0.15
18,IQIFEKGDFSGQMYETTEDCPSIMEQFHMREIHSCKVLEGVWIFYELPNYRGRQYLLDKKEYRKPIDWGAAQPAVQSFRRI,0.086 ± 0.25
19,IQIFEKGDFSGQMYETTEDCPSIMEQFHMREIHSCKVLEGVWIFYPLPNYRGRQYLLDKKEYRKPIDWGAASPAVQSFRRI,-0.16 ± 0.082
20,IQIFEKGDFSGQMYETTEDCPSIMEQFHMREIHSIKVLEGVWIFYELPNYRGRQYLLDKKEYRKPIDWGAASPAVQSFRRI,-0.039 ± 0.1
21,IQIFEKGDFSGQMYHTTEDCPSIMEQFHMREIHSCKVLEGVWIFYELPNYRGRQYLLDKKEYRKPIDWGAASPAVQSFRRI,-0.095 ± 0.14
22,IQIFEKGDFSGQMYLTTEDCPSIMEQFHMREIHSCKVLEGVWIFYELPNYRGRQYLLDKKEYRKPIDWGAASPAVQSFRRI,-0.078 ± 0.078
